Target: decorin
Test: cell-based or functional assay

Question: “Full length human WISP-1-Fc fusion protein (baculovirus, Sf9 insect cells) (from UniProt O95388 23-367)” was tested. Which HAS2 expression in NRK cells plated on the coated surface (real time RT-PCR) did it give?
Answer: 3 fold

Source: patent US20060147453A1
